Assay results published in patent US20040175785A1, “Increasing bioavailability of carotenoids” (priority 2001, published 2004).

Assay: Enzymatic deesterification of paprika oleoresin carotenoids, HPLC determination
Type: biochemical
Method: HPLC was conducted on a Shimadzu LC-10 AT equipped with SCL-10A Shimadzu diode array detector. Photodiode array measurements of spectral properties from the individual peaks (from 260 to 540 nm) were determined at the upslope, apex and downslope. The column (Merck RP-18e 3.4×250 […], 5-μm particles) was used for HPLC separations. The peaks were detected at 450 and 474 nm.
Deesteriflcation paprika oleoresin by enzymes: Paprika oleoresin (20 mg) was mixed with TWEEN-20 (200 μl) or deoxycholate (100 mg) and 10 ml of H2O. The emulsion has been shaken at 37° C. for 24 hours. Extraction of carotenoids was performed by the addition of 4 ml of ethanol and 5 ml of hexane. The extraction with hexane was done repeatedly until no color could be observed in the extracts. The combined hexane extracts were washed with water (25 ml) and dried over anhydrous sodium sulfate for HPLC determination of the carotenoids.

B1: pancreatic lipase: lipase pancreatic from porcine, obtained from Sigma Chemical Co. (protein, UniProt P00591 1-450, looked up)
Pancreatic triacylglycerol …: SEVCFPRLGCFSDDAPWAGIVQRPLKILPWSPKDVDTRFLLYTNQNQNNYQELVADPSTITNSNFRMDRKTRFIIHGFIDKGEEDWLSNICKNLFKVESVNCICVDWKGGSRTGYTQASQNIRIVGAEVAYFVEVLKSSLGYSPSNVHVIGHSLGSHAAGEAGRRTNGTIERITGLDPAEPCFQGTPELVRLDPSDAKFVDVIHTDAAPIIPNLGFGMSQTVGHLDFFPNGGKQMPGCQKNILSQIVDIDGIWEGTRDFVACNHLRSYKYYADSILNPDGFAGFPCDSYNVFTANKCFPCPSEGCPQMGHYADRFPGKTNGVSQVFYLNTGDASNFARWRYKVSVTLSGKKVTGHILVSLFGNEGNSRQYEIYKGTLQPDNTHSDEFDSDVEVGDLQKVKFIWYNNNVINPTLPRVGASKITVERNDGKVYDFCSQETVREEVLLTLNPC
- extent of deesterification of paprika carotenoids (general statement, "shown herein"): to a very limited extent
- deesterification in similar assays with other lipases, compared with lipase amano 30 (similar assays to FIGS. 3 and 4): far poorer results
